Laboratory results: paper PMC3983046

Assays:
Ash2LN K225E = Ash2LN K225E (human, UniProt Q9UBL3 95-280, K225E); assay: EMSA
Ash2LN K229E = Ash2LN K229E (human, UniProt Q9UBL3 95-280, K229E); assay: EMSA
Ash2LN K229E, sequence (Q9UBL3 95-280 K229E): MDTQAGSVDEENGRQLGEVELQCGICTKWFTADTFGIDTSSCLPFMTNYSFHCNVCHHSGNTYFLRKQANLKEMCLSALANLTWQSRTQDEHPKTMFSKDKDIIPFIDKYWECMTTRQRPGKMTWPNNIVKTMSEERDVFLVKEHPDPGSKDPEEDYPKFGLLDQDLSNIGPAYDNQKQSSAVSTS

Ash2LN K225E, sequence (Q9UBL3 95-280 K225E): as the sequence (Q9UBL3 95-280 K229E) above, with K131E, E135K counted along it

B1: HS2 (dsDNA)
DNA 1: GCAATGCTGAGTCATGATGAGTCATGCTGAGGCTTAGGGTGTGTGC
DNA 2: GCACACACCCTAAGCCTCAGCATGACTCATCATGACTCAGCATTGC
binding result (Ash2LN K225E): no binding
binding result (Ash2LN K229E): no binding
